From PMC9811555 (Current protocols, 2022)

T1: H2B-mCherry-127D01 (127D01 tag, identical to a stretch of …, UniProt P25025)
T1 chain: SFEDFWKGED

T2: VHH05-REPTOR-127D01 (VHH05 and 127D01 tags (human UBE2J1 and …, UniProt Q9Y385;P25025))
T2 chain 1: QADQEAKELARQIS
T2 chain 2: SFEDFWKGED

T3: H2B-mCherry-VHH05 (VHH05 tag, identical to a stretch of …, UniProt Q9Y385)
T3 chain: QADQEAKELARQIS


Legend:
H2B-mCherry-127D01 = molecular target: T1, H2B-mCherry-127D01; experiment: far-Western, overlay or dot blot
VHH05-REPTOR-127D01 = molecular target: T2, VHH05-REPTOR-127D01; experiment: immunostaining of cells or tissue
H2B-mCherry-VHH05 = molecular target: T3, H2B-mCherry-VHH05; experiment: far-Western, overlay or dot blot

binding result (H2B-mCherry-127D01)	binding result (VHH05-REPTOR-127D01)	binding result (H2B-mCherry-VHH05)	Binder
binds			Nb127D01-HA-His (VHH) VHH: EVQLVESGGGLVQAGESLRLSCAASGSTFDFKVMGWYRQPPGKQREGVAAIRLSGNMHYAESVKGRFAISKANAKNTVYLQMNSLRPEDTAVYYCKVNIRGQDYWGQGTQVTVSS
	binds		Nb127D01-ALFA-His (VHH) VHH: EVQLVESGGGLVQAGESLRLSCAASGSTFDFKVMGWYRQPPGKQREGVAAIRLSGNMHYAESVKGRFAISKANAKNTVYLQMNSLRPEDTAVYYCKVNIRGQDYWGQGTQVTVSS
	binds	binds	NbVHH05-HA-His (VHH) VHH: QVQLQESGGGLVQPGGSLRLSCAASGFVFENSAMAWYRQAPGKERELIAVIGTTFIKLAESVKGRFTISRDNAKSTVYLQMNNLKPEDTAVYYCSKSGAYWGQGTQVTVSS
